The data set can be described thus: protease stability score; higher = more stable; yeast display proteolysis, trypsin and chymotrypsin.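 Also: relative to predicted unfolded state with 0 unfolded-like and 1 meaning tenfold more protease.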
For “SEDEKMIEDASELHIDYFLTGDEESMEKLADPSVKLEQGDKDQHGREQHSKWYKELREELGIKHMRVDDVKFRLINGRLTLLIRGTLHVGDKSWDVHFILISEKIDGKWVIRNMIISYS”, the protease stability score turned out to be 1.32.

“SEENEVIHRVIYYWIRAMKTGDEHLVSRLFDPNARHEIDGVDHVGWEEILKFFRRFDHLHHFHVNHIESHGDKIILDGRVDGEVNGQHLRFHVEIISLKVNGRWINQSEHVH” displayed a protease stability score of 1.81.

“DEIEDHMREVREQLLRDLTTGDWKKMREMLDPHVRIHIGDFHDHGRESAEEWLRKFKGLTLRIHDVRVKIIDGRALVENDGELTYDGRRHRVRIHVYVTKVDGVWMVETLEIRIH” displayed a protease stability score of 1.15.

Regarding “SEEKKAIDEVLRLIFEAELTGNEDELEHLIDPHVKFHIDGVDVHGWEYLSYWIRQIRIHNLHPRSVEIHVYNGRVEVNIRGHYEGTINGRRTTFDMRVHIRIEKIDGVWIVREMSRHNH”, the protease stability score worked out at 1.7.

As to “DESQHVAEKVYKHLLKYWVTGDEDSVSRLVDPHARLHFEGRDLHGRHLISQFRMEWRLDHVHVDDMQVQGDKMEVRGKLDTTIDGRRTNLNEHLRLEKIDGRWYIREIRIE”, the protease stability score amounted to 1.25.

Sequence “SERDKFTEEVARLWYHLLYTGNEELLQHMMDPDVRVHINGRTVVGRHEATRLLHELSETFGINHIHIHDIKIQGDKSDDDTEIQAPGRRVRVHIHLEIINGRIKRIEFRIE” came in with a protease stability score of 1.68.

For the sequence “DDEDRKKADEMLKALKHGDPDRVRELMDPNAKAVYGDKRIRGRDDFVEDMFRKQREIKIDMKIEEFRVNGNHAVFTVDVIEDKDGRPKRFKARVVITLHNGKIIDIKVEEEH”, the protease stability score is 1.49.

For “HEHEQQVREIAKKLLHALLTGDEDEIYRLIDPNVRLIILVGDKEIHVHGRELVSEVMHKLFRELGVDHWHSRSELLIGNKFHVDTEQHFNGQTFETQVHILVIDGKVHLLTLQIH”, the protease stability score was determined as 1.88.

For “DEDTREKRRILEESLHIFETGDWEAMLKNADPNVRSEIHIGDKRLEFHGMRNWLEEWLTRLEKIKNMTFRIHDIRRQGDKVHIDGDLHVNGKHSKVRIELIIVDGVIHTLFFFDH”, the protease stability score stood at 0.953.

“SEETEFAKEMLDIIFNLLRTGDWEYLVRLMDPHVRVIYGDKVTHGRDIIQYMHEHIRIRHLEFRHFDVIGDKINVDGRMEGEVNGRHDKTEMHIILLKINGRWSLHSIEIR” gave a protease stability score of 1.39.

The sequence “DKKQVHDVARTLVQYYVSGNSERVKQLGKEDVELHAGDRTYHGVDQMAKVVEQFKKYGVELEVKDVKVDGNRVTARVQFHKAGTTWEFKVDVQADGGKVDQVRVNVTEEAIKHIQHG” registered a protease stability score of 0.715.

Sequence “SEEEKDATDMLEHYIRSLLTGDEHLWRELADPNVKTEIDGVEMIGRESWRILVERLGVDHSDVEDIDFRFYDGRLNVRVKTRHHVNGRTFETELIVIIEKINGRWRVTQIEIRIK” came in with a protease stability score of 2.5.

With “NKHERDAEHFIKEWWHDVHTGDEDHYLKRLDPNMRVDINGQEFHGREKVLTFFHEHSRHLGIDHLIIDHVRIRVQGNKIEEEVEGENVFNGKRLEVRFHFVARKIDGRWELEHLTVRIS”, the protease stability score worked out at 0.724.

Sequence “SDEKKRLDDLAMTFLTLWMTGDWDHFARQADPHVRSDINGKELHGREIFVNFLREEMTRLGVDHFELHSVTVIDGKVHFDGEVDVNGVRHKTILWSVIFNGRIKSQEEEIR” displayed a protease stability score of 1.15.

Sequence “SEIEEEIEQAYKLTKHHWETGDEKDIRRNADPHVRVYFNGREYHGWEVLHEVLRLMGAKHVEIHRYEIQGEYVHIDSEVRQGDKRFRMHVESYKVNGRWFIETVFIK” came in with a protease stability score of 0.749.

Sequence “NEVEDEIKHLLEHLLHSHDTGDWHDLVRLADPNVRVNINGKHFHGREDVEEVIKRLGIKHIRIHHVEVQGDKIHIDGNMHFDGRVYETHIDAKKIDGRWIMHNLEVR” gave a protease stability score of 1.4.

The sequence “EEEKEIAEELIRRIRESLRTGDEDLKHKLADPNVRHIFNGRNNHGREEMLRTLEELIKQFGVENIDIELHDWDHVDGRLHIHVRVRYGDYMMHLRIEAEKVNGRWQSETVELR” showed a protease stability score of 1.23.

Sequence “DNEEKDNKTATKLLLDWLRTGDEESMSRNADPNTRLEIGDKEFHGREEVLRHLHELKRHFGIERFEVDIERVEIYGDKVVIHSRMNVNGQRREVIFIDRKIDGRWIFKSIELR” came in with a protease stability score of 1.13.

As to “DDDERALEEAIRIIKEVFKTGDERLHEELFDPNYLLIINGVFYHGREVMRNFHRHWRIRHVEFRRTRVINGRIEMDVHIITDINGQEIRHDSHIYAHKIDGRWIFRSVEHH”, the protease stability score is 1.63.

Consider “DEEEEETHEYMRLLVRLFLTGDEEVFDRLADPNRRLKWNGREYHGREQTNRVWRELGVKHRRIEDIKMQGDKVVIEGTVHIGDKTLRTTVSFVIIDGRTKSIEIRDI”, for which the protease stability score is 1.46.

As to “SEEEHELDHIAKEFLRVYLTGDEDELRKLMDPNARVDINGREMIGMELILKDLRDRLEHLGIKHSHITIREVQNFDGQIHIRGHIRIEIGNKRLEFDSRIIMHVIDGRLRSFHVIFI”, the protease stability score is 1.92.

With “SEDEKDARIAVKLLWEIFQTGDEDLFTKFIDPNTRSEINGREIHGREDVYRLMEELGIKVIRVHDVKTQGDKVHLTMEVTVNGRRHRVHFIFEKIDGRWIARHEKVE”, the protease stability score came to 1.45.

The sequence “DEEHEFLITMVKLVSTWFLTGDFETYIDLADPNTRQHVNGRYSVGREDAVKLEEEMLREIRIRDIRVKHIIRQGDKIELEFRFHMEVDGRVEDITVEVRIFLVNGRLHFLEIRFD” had a protease stability score of 0.743.

As for “DDIEEDVKEFLRLMKEMNETGDEHRLTEMADPNVRVHIGDKHFHGREDAERLWRRADVFHHIKIKEYELQGDKLYMNVEVDGKFDGKRIRHDVTEIVTKVNGRWLLRSIRFD”, the protease stability score amounted to 0.577.

On to “DEEEREARDAVHRFDKDVVTGDEDRLRELMDPNVKLDIGDKEIIGREYMVSFWRELVKHIRIHSITIKRVEVYDGRIHVHQEVTLNIDGQHVTIKSHTIALKVNGKWTWTRFSMT”, for which the protease stability score worked out at 1.06.

As for “DEERKMYTYAHKLLKTSHDTGNEDDLTNLVDPNVRIDINGRDIHGWDFWHEMMTKLGVNVFETKHVELQGNKLHIDGTLHVDGRTHRVTINNIKIDGRWIIKHVHIE”, the protease stability score is -0.3.

Regarding “TEDEHHEELIAKELFHNFLTGNEDLLSEMADPNTKSDIDGKHDVGREEMSRSLIEFLDKMGIKHLVLTDHRAVNGKVILHERVHVNGRDIEVNLTWDVWNGRIKRVEIRITHR”, the protease stability score was 0.982.

“REEEKMMRHIFRLDVILELTGDEEKWKHYADPNVRVIFIFENVHIEHHGRDAWVRLLHHMRIDRIIIHRLRVFENHNQADTFVKGEINGRELDMETHFYVLVINGRRKEVELEVR” registered a protease stability score of 1.46.

On to “DEDTKKAEEVLRMFDEAFRTGDEDILRELMDPNVRYVINGREFHGREEVTNAMRELHHRFDHFKSTHIKDHKIQGDKMDVHSTLTYHVNGKDIHVDSREVWVKVNGKWHLRKIIIH”, for which the protease stability score worked out at 2.24.

The sequence “DHEDERETWAYHMLIHAFRTGDERIHEELLDPNVRTDVDGRTSHGWENVVKLVHHVLRLLGIDHIRLRRSDVVDGRVYMQGDIRVNGRTIETRVTIQVINGRVHSWSVRAE” registered a protease stability score of 1.6.

In turn, “SEDEHEALKVSEQFIRDLLTGDEDTFNRLADPNTRSEVGNKRQHGMDEVTHLWKELRIEDFTLRDQKIRIIGDKAEIDMDGEMVIIVNGKRVVQRVTLHLRVRKINGRWILHSIKLHIE” yielded a protease stability score of 1.3.

Sequence “SEDEEEKHKFAEIFWHAHLTGDFDTLKRLVDPNVRIRIGDKDLHGREHLLEELRKIKNLTIEERHVDIQGEWMRMEVVHYVNGVHIDTTIHIDVVNGRIRRIVFNIV” returned a protease stability score of 2.47.

As for “DDLHEDTKRYLKEWIDLMYTGDEEKIFENMDPNTRIIDENHELHGREEVKDWARRMARELRHREFELTHLEVQGNFIHVRGLLIGDQGDKVIIRDVEIISIKINGRWRIESVRFE”, the protease stability score came to 2.34.

“DEDERMIDEYLKKLVKSLITGDEETFTRLVDPHARHDFNGVEYHGWLWLHMVRKRADHFEVRIKNSEVQGDKLRLDFELIFRQGDKTITLKIQVIITKVDGRWIITSIDHD” had a protease stability score of 1.79.

Sequence “DEEHEMAKRASEKFVKDWVTGNFEVLRENLDPHVRLDINGVKVHGRELVWHYIAKRLRFMGVDHTEMEVHHREVQGNKLITDMEERIHVGDYHEERRVVLISQKINGKWLVKSIHEE” showed a protease stability score of 1.56.

The sequence “SETEETSRHLMEMFEKSMLTGDEEHYKRMADPNVRMHINGQEYVGWEDFTRILREIRTEEVRFKVKRYDLVGEYLHVDLRIERDTHVNGVKVEFRTEAELIVVKVDGRWIVKEVRIK” registered a protease stability score of 1.27.

As to “DESHQLMLELLEELFHLLLTGNEETILRLADPNTRLQINGQETHGRESARHYWQRFLEHWRLKDYRIRSLYSQGDKAIIHTEVVLHYNGRDFRVTTEIRLWVFDGKIHEIIIIIN”, the protease stability score worked out at 1.53.

“DRQKEILRELMEMFLTIFETGDEERFWELADPHVRHVIDIGDKEIRRVGREEMLKVWEHLYREMRIHRITLKDVRLVNGVFHAHVKVDGEYNGQRRETEMDIELNVVNGRVKSLIIHIQ”: the protease stability score turned out to be 1.89.

Regarding “SEEKEKAEHVVRQFLRVILTGDWERIEELMDPHVRFRVDVDGQTLHNHGRERLIDWYAKVKGLRNNLREIHIFENRAELHFESTIGDKHFKERIEIHIVDGRFKSVTFQFE”, the protease stability score is 1.42.

Consider “SEEKELLEKISELLLKLLKTGDEETWNKLADPNMRLNVNGKDVHGWHKMIKLRHEVWEKLGIDHLEVKTIDIINGRVRIESRLVVNGRFIHIELEFHVINGRNEEEHLFVR”, for which the protease stability score was determined as 0.418.

Turning to “DEETREAKEAFDIIIKHIETGDEDLLSEMLDPNVRINQGEFRIHGREAVEEWLNYMLHHMRVHVRSEEVRVVGDKVESDFRVQINQGDKIYHHDTRLFLFKIDGRWFIESMEFH”, the protease stability score was 1.36.

With “DRHERKKVAKDFNEALETNDHEQLMEQMDPNARIKYGDKHYHGREDLRRFWKKLVDSVDHITVDKMQVRGEEVVVLAKAESNGRNETFRLVMEFHNGRIKFVRKDTP”, the protease stability score worked out at 1.05.

Regarding “DELERDSRRVMEKLLEILYTGNFDELRKLFDPNVITHIDGRHIHGMHITIRELLRIQEELGYEFVEARMTSTHHQGDKLYVHLEYRIGDKTTRFFWFITKIDGRWWITEMRFE”, the protease stability score is 1.4.

With “SEEEDLVQKAFEIFVHDIRTGDEDSLIENADPNVRLLINGVIFHGREEFKFIMRHWRIRRIELHDYRIQGDKAHVESRMDIEFNGRIRITHVELVILKVNGQWLIHTIKVI”, the protease stability score was found to be 0.454.

“DESTHNRKIAVEILEHDNKTGDEKSIFRLFDPHVKIEVDGRDYHGREFFEEFIRKLGWTNIELTIKDVRSIGEFAEMRMEVRYGDWHFHTKVDVKKYNGQWLNREVRIA”: the protease stability score was 1.44.

As for “SEDEELVERALQEFLEHLETGDFETLRDQVDPNARVDIDGRERIGRHDILKHWEEWRWHEIKLKHVEFQGDFVHLDGKVRITIDGKEISTHVKILVYKVNGRWLMKELRIG”, the protease stability score worked out at 2.27.

“TEDEEAAERMIKTWLEKIITGNEEFLTEFMDPDTKVDINGKELHGWEDILQHLRHIRVHDMHVEIEDVRFINGVIEIRGTMHKDGEVNGRRTQTEQHVVFVLQKIDGRWRLRSYSIR”: the protease stability score came to 2.27.

The values are drawn from the NTF2 design screens of Basanta et al. (2020).
